Measurements: patent US5128450A, “Nonglycosylated human interleukin-3 analog proteins” (priority 1989, dated 1992)

B1: huIL-3 (Ser^8): composition of huIL-3 (Ser^8) produced in E. coli, reported by Valent et al. (protein, UniProt P08700 20-152, looked up, variant P8S)
Interleukin-3: APMTQTTSLKTSWVNCSNMIDEIITHLKQPPLPLLDFNNLNGEDQDILMENNLRRPNLEAFNRAVKSLQNASAIESILKNLLPCLPLATAAPTRHPIHIKDGDWNEFRRKLTFYLKTLENAQAQQTTLSLAIF
B2: Met^3 rhuIL-3 (Pro^8 Asp^15 Asp^70): truncated, non-glycosylated IL-3 analog having an N-terminus at Met^3, expressed from pIXY290 (protein, UniProt P08700 20-152, looked up, variant del1-2 N15D N70D)
Interleukin-3: MTQTTPLKTSWVDCSNMIDEIITHLKQPPLPLLDFNNLNGEDQDILMENNLRRPNLEAFNRAVKSLQDASAIESILKNLLPCLPLATAAPTRHPIHIKDGDWNEFRRKLTFYLKTLENAQAQQTTLSLAIF

Columns and labels:
rhesus monkeys = details: cited from earlier work
human bone marrow cells = assay: Human bone marrow proliferation assay; type: cell-based
Protocol: Freshly isolated human bone marrow cells are preincubated for 2 hours at 37° C., 5% CO2, in tissue culture flasks containing 2×10^6 cells per mi prewarmed, pregassed serum-free RPMI1640 medium (Gibco, Chagrin Falls, OH, USA) containing 50 units/ml penicillin, 50 μg/ml streptomycin, and 300 μg/ml fresh L-glutamine (hereinafter "assay medium"). After preincubation, nonadherent cells are removed by pipetting the media gently over the surface of the flask. Nonadherent cells are collected by centrifugation at 1000 rpm for 10 minutes at 4° C., resuspended in a small volume of assay medium containing 10% fetal bovine serum (FBS), and counted using Trypan blue for viability and Turks stain for recovery of white cells. Cells are kept at about 4° C. in assay medium containing 10% FBS until added to assay plates.
50 μl assay medium are added to each well of a 96 well flat bottom tissue culture plate. 50 μl of sample diluted in assay medium are added to the first well of each row, and serial dilutions are made across each row in the usual manner. […] After incubation, cells are harvested onto glass fiber filters, washed, and tested for incorporated radioactivity using a scintillation counter. Units of huIL-3 activity are calculated by reference to the quantity of huIL-3 which induces 50% of maximal thymidine incorporation. […]

| Molecule | intracellular histamine (IH) in WBC (rhesus monkeys; after IL-3 treatment until day 8-10) | white blood cell (WBC) increase (rhesus monkeys; by day 14, 11, 33, 100 μg/kg/day s.c. thrice daily) | plasma histamine (rhesus monkeys; rhesus monkey, in vivo) | skin side effects (skin biopsy) (rhesus monkeys; rhesus monkey, in vivo) | biological activity compared with production lots of Example 2 (human bone marrow cells) |
| --- | --- | --- | --- | --- | --- |
| B1 | rise continuously | 2-3 fold | rise in plasma histamine values | urticaria-like exanthem revealing infiltration of mast cells and lymphocytes into the dermis |  |
| B2 |  |  |  |  | comparable in biological activity to the rhuIL-3 production lots |
